Tests used:
[1] = target: T1, human VEGF-A (human, UniProt P15692-4 27-191, limits assumed); experiment: SPR (Biacore 3000); IgG over immobilized VEGF-A; 1:1 binding model; initial study; initial study; Biacore 3000; IgG over immobilized VEGF-A
T1 construct: Sources differ between assays (Dr. Brekken; R&D Systems); also called VEGF-biotin (biotinylated form in the receptor ELISA)

[2] = target: T1, human VEGF-A; experiment: SPR (Biacore T100); IgG over 100 RU human VEGF-A on a CM5 chip; 1:1 fit; 37°C
Method: (§1) The background signal from a flow cell coated with BSA was subtracted from the binding curves. The binding affinity expressed as the KD was calculated by the 1:1 Fitting model using software belonging to the Biacore T100 machine.

[3] = target: T1, human VEGF-A; experiment: SPR (Biacore T100); IgG over 100 RU human VEGF-A on a CM5 chip; 1:1 fit; 25°C
Method: as §1

[4] = target: T1, human VEGF-A; experiment: SPR (Biacore T100); IgG over 100 RU human VEGF-A on a CM5 chip
Method: as §1

T1 sequence (P15692 other isoform, or with tags, fused parts or gaps limits assumed): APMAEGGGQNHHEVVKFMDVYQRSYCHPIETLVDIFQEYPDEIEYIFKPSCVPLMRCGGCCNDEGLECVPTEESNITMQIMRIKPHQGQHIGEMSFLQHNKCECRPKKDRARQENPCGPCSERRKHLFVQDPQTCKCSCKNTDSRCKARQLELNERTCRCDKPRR

B1: r84/PGN311 full length fully human IgG (antibody, V domains shown)
VH: QVQLVQSGAEVKKPGASVKVSCKASGGTFSSYAISWVRQAPGQGLEWMGGFDPEDGETIYAQKFQGRVTMTEDTSTDTAYMELSSLRSEDTAVYYCATGRSMVRGVIIPFNGMDVWGQGTTVTVSS
VL: not shown
notes: Human IgG1/kappa (Lonza pCon IgG1a and kappa vectors, CHO K1SV cells); also called r84 IgG; r84/PGN311 IgG
- Kd [1]: 6.7 nM
- Kd [2]: 5.22 nM
- Kd [3]: 3.21 nM
- fold reduction of KD, 25°C versus 37°C [4]: < 2 fold

From patent publication US20120064001A1 (AFFITECH RESEARCH, published 2012)
